By Kd is commonly meant the equilibrium constant for the complex coming apart.

The source of these data is US20250218531A1 (ABSCI, published 2025).

This assay deals with human epidermal growth factor receptor 2 (HER2) extracellular domain (human, UniProt P04626 23-629). As to the kind of experiment: SPR, Fab format.

B1: De novo trastuzumab HCDR2|3 variant IYPSNGYT / ARYGGSYAYYFYY (Fab, V domains shown)
VH: EVQLVESGGGLVQPGGSLRLSCAASGFNIKDTYIHWVRQAPGKGLEWVARIYPSNGYTRYADSVKGRFTISADTSKNTAYLQMNSLRAEDTAVYYCARYGGSYAYYFYYWGQGTLVTVSS
VL: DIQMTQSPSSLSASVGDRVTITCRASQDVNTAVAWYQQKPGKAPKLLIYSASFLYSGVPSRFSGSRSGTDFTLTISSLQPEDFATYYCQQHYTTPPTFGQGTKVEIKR
notes: also called AI Design 8
As to B1, binding was characterised by a dissociation constant (Kd) of 18.6 nM and the “log(KD (M))” value is -7.73 log M.

B2: Multi-step trastuzumab HCDR3 variant ARYGGGYYYYYDY (SEQ ID NO: 531) (Fab, V domains shown)
VH: EVQLVESGGGLVQPGGSLRLSCAASGFNIKDTYIHWVRQAPGKGLEWVARIYPTNGYTRYADSVKGRFTISADTSKNTAYLQMNSLRAEDTAVYYCARYGGGYYYYYDYWGQGTLVTVSS
VL: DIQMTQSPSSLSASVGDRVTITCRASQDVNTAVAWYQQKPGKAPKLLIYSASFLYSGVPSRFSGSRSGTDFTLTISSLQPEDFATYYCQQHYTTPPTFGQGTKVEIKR
Consider B2, for which the Kd turned out to be 57.6 nM and the “log(KD (M))” value is -7.24 log M.

B3: De novo trastuzumab HCDR2|3 variant IYPSNGYT / ARYRGSSSYYFDY (Fab, V domains shown)
VH: EVQLVESGGGLVQPGGSLRLSCAASGFNIKDTYIHWVRQAPGKGLEWVARIYPSNGYTRYADSVKGRFTISADTSKNTAYLQMNSLRAEDTAVYYCARYRGSSSYYFDYWGQGTLVTVSS
VL: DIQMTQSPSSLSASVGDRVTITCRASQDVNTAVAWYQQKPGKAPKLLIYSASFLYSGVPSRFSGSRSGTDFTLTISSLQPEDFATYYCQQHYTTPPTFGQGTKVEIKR
Consider B3, for which the Kd amounted to 907 nM and the “log(KD (M))” value is -6.04 log M.

B4: Multi-step trastuzumab HCDR3 variant ARSGGRYTYGFDY (SEQ ID NO: 551) (Fab, V domains shown)
VH: EVQLVESGGGLVQPGGSLRLSCAASGFNIKDTYIHWVRQAPGKGLEWVARIYPTNGYTRYADSVKGRFTISADTSKNTAYLQMNSLRAEDTAVYYCARSGGRYTYGFDYWGQGTLVTVSS
VL: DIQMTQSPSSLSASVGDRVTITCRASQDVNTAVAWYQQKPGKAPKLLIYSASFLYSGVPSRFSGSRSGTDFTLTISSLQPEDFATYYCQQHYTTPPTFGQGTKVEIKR
For the molecule B4, the affinity, expressed as Kd, was 1410 nM and the “log(KD (M))” value was -5.85 log M.

B5: Multi-step trastuzumab HCDR3 variant ARSGGSGYYSYNY (SEQ ID NO: 523) (Fab, V domains shown)
VH: EVQLVESGGGLVQPGGSLRLSCAASGFNIKDTYIHWVRQAPGKGLEWVARIYPTNGYTRYADSVKGRFTISADTSKNTAYLQMNSLRAEDTAVYYCARSGGSGYYSYNYWGQGTLVTVSS
VL: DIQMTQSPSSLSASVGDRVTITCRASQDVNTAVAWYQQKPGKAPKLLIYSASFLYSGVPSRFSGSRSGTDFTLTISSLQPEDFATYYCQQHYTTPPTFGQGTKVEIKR
B5: binding was put at a Kd of 603 nM and the “log(KD (M))” value was -6.22 log M.

B6: Multi-step trastuzumab HCDR3 variant ARSRGSSSYMMDY (SEQ ID NO: 512) (Fab, V domains shown)
VH: EVQLVESGGGLVQPGGSLRLSCAASGFNIKDTYIHWVRQAPGKGLEWVARIYPTNGYTRYADSVKGRFTISADTSKNTAYLQMNSLRAEDTAVYYCARSRGSSSYMMDYWGQGTLVTVSS
VL: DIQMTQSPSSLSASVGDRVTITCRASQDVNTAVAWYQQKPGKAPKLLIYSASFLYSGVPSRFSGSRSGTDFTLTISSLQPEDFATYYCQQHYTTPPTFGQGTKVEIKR
For B6, the Kd is 566 nM and the “log(KD (M))” value was -6.25 log M.

B7: Multi-step trastuzumab HCDR3 variant ARSSGSSYYGFDY (SEQ ID NO: 526) (Fab, V domains shown)
VH: EVQLVESGGGLVQPGGSLRLSCAASGFNIKDTYIHWVRQAPGKGLEWVARIYPTNGYTRYADSVKGRFTISADTSKNTAYLQMNSLRAEDTAVYYCARSSGSSYYGFDYWGQGTLVTVSS
VL: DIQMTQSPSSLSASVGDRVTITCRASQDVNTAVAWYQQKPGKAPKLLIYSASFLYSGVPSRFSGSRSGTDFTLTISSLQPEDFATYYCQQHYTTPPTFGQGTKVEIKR
Regarding B7, the Kd is 668 nM and the “log(KD (M))” value is -6.18 log M.

B8: Multi-step trastuzumab HCDR3 variant ARSTGSGFYSYDY (SEQ ID NO: 547) (Fab, V domains shown)
VH: EVQLVESGGGLVQPGGSLRLSCAASGFNIKDTYIHWVRQAPGKGLEWVARIYPTNGYTRYADSVKGRFTISADTSKNTAYLQMNSLRAEDTAVYYCARSTGSGFYSYDYWGQGTLVTVSS
VL: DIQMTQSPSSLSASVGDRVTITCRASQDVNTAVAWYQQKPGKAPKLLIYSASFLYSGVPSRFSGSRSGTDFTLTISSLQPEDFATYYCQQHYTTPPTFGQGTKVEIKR
Regarding B8, the Kd came to 330 nM and the “log(KD (M))” value was -6.48 log M.

B9: Multi-step trastuzumab HCDR3 variant ARSGGYYTYGFDY (SEQ ID NO: 548) (Fab, V domains shown)
VH: EVQLVESGGGLVQPGGSLRLSCAASGFNIKDTYIHWVRQAPGKGLEWVARIYPTNGYTRYADSVKGRFTISADTSKNTAYLQMNSLRAEDTAVYYCARSGGYYTYGFDYWGQGTLVTVSS
VL: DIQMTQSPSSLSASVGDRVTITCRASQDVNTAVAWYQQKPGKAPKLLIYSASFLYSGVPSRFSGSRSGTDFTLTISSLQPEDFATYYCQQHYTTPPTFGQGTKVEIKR
In the case of B9, the Kd was 338 nM and the “log(KD (M))” value is -6.47 log M.

B10: Multi-step trastuzumab HCDR3 variant ARDGGSSSYSYSY (SEQ ID NO: 535) (Fab, V domains shown)
VH: EVQLVESGGGLVQPGGSLRLSCAASGFNIKDTYIHWVRQAPGKGLEWVARIYPTNGYTRYADSVKGRFTISADTSKNTAYLQMNSLRAEDTAVYYCARDGGSSSYSYSYWGQGTLVTVSS
VL: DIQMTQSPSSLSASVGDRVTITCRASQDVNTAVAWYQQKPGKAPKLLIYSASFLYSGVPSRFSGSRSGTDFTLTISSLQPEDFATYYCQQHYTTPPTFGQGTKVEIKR
Regarding B10, the Kd came out at 146 nM and the “log(KD (M))” value was -6.83 log M.

B11: Multi-step trastuzumab HCDR3 variant ARSYGSGSYSFDY (SEQ ID NO: 514) (Fab, V domains shown)
VH: EVQLVESGGGLVQPGGSLRLSCAASGFNIKDTYIHWVRQAPGKGLEWVARIYPTNGYTRYADSVKGRFTISADTSKNTAYLQMNSLRAEDTAVYYCARSYGSGSYSFDYWGQGTLVTVSS
VL: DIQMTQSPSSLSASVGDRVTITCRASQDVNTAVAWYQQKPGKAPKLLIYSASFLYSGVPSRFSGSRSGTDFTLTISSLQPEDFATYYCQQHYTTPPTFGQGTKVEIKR
Turning to B11, the Kd turned out to be 495 nM and the “log(KD (M))” value was -6.31 log M.

B12: Multi-step trastuzumab HCDR3 variant ARDGGRSYYSFYY (SEQ ID NO: 538) (Fab, V domains shown)
VH: EVQLVESGGGLVQPGGSLRLSCAASGFNIKDTYIHWVRQAPGKGLEWVARIYPTNGYTRYADSVKGRFTISADTSKNTAYLQMNSLRAEDTAVYYCARDGGRSYYSFYYWGQGTLVTVSS
VL: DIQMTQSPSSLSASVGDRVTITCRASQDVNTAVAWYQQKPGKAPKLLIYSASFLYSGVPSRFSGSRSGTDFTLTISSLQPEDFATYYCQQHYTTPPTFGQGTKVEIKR
Turning to B12, the Kd came out at 104 nM and the “log(KD (M))” value was -6.98 log M.

B13: Multi-step trastuzumab HCDR3 variant ARSSGYYYYGFVY (SEQ ID NO: 540) (Fab, V domains shown)
VH: EVQLVESGGGLVQPGGSLRLSCAASGFNIKDTYIHWVRQAPGKGLEWVARIYPTNGYTRYADSVKGRFTISADTSKNTAYLQMNSLRAEDTAVYYCARSSGYYYYGFVYWGQGTLVTVSS
VL: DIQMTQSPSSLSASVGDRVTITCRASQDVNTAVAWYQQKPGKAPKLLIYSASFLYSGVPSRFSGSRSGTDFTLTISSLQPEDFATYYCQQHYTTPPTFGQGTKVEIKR
With B13, the Kd came to 157 nM and the “log(KD (M))” value was -6.8 log M.

B14: Multi-step trastuzumab HCDR3 variant ARVGGYGYYSYDY (SEQ ID NO: 539) (Fab, V domains shown)
VH: EVQLVESGGGLVQPGGSLRLSCAASGFNIKDTYIHWVRQAPGKGLEWVARIYPTNGYTRYADSVKGRFTISADTSKNTAYLQMNSLRAEDTAVYYCARVGGYGYYSYDYWGQGTLVTVSS
VL: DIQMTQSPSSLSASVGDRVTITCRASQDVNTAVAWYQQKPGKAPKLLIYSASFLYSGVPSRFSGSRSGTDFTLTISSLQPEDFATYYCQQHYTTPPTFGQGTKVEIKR
Take B14: the equilibrium dissociation constant (Kd) amounted to 169 nM and the “log(KD (M))” value is -6.77 log M.

B15: De novo trastuzumab HCDR2|3 variant IYPSNGYT / ARYYGGSMYYYGY (Fab, V domains shown)
VH: EVQLVESGGGLVQPGGSLRLSCAASGFNIKDTYIHWVRQAPGKGLEWVARIYPSNGYTRYADSVKGRFTISADTSKNTAYLQMNSLRAEDTAVYYCARYYGGSMYYYGYWGQGTLVTVSS
VL: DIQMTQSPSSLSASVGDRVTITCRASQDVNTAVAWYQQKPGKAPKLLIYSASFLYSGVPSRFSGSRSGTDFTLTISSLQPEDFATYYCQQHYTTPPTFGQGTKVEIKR
In the case of B15, binding was characterised by a dissociation constant (Kd) of 109 nM and the “log(KD (M))” value is -6.96 log M.

B16: Multi-step trastuzumab HCDR3 variant ARSGGSYSYSFDV (SEQ ID NO: 522) (Fab, V domains shown)
VH: EVQLVESGGGLVQPGGSLRLSCAASGFNIKDTYIHWVRQAPGKGLEWVARIYPTNGYTRYADSVKGRFTISADTSKNTAYLQMNSLRAEDTAVYYCARSGGSYSYSFDVWGQGTLVTVSS
VL: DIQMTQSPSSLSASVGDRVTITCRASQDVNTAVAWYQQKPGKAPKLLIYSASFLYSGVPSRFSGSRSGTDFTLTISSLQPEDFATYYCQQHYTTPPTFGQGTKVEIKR
Consider B16, for which the Kd is 1070 nM and the “log(KD (M))” value was -5.97 log M.

B17: Multi-step trastuzumab HCDR3 variant ARYGGDYYYYYDY (SEQ ID NO: 527) (Fab, V domains shown)
VH: EVQLVESGGGLVQPGGSLRLSCAASGFNIKDTYIHWVRQAPGKGLEWVARIYPTNGYTRYADSVKGRFTISADTSKNTAYLQMNSLRAEDTAVYYCARYGGDYYYYYDYWGQGTLVTVSS
VL: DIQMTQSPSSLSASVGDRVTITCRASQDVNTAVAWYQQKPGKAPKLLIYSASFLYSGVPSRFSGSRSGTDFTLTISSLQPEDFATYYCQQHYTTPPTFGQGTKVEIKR
Consider B17, for which the Kd is 57 nM and the “log(KD (M))” value was -7.24 log M.

B18: Multi-step trastuzumab HCDR3 variant ARVGGRGYYAYDY (SEQ ID NO: 552) (Fab, V domains shown)
VH: EVQLVESGGGLVQPGGSLRLSCAASGFNIKDTYIHWVRQAPGKGLEWVARIYPTNGYTRYADSVKGRFTISADTSKNTAYLQMNSLRAEDTAVYYCARVGGRGYYAYDYWGQGTLVTVSS
VL: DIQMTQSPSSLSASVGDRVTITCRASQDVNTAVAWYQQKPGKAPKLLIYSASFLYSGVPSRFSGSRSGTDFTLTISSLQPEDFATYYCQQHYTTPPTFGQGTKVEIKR
Regarding B18, the Kd is 2290 nM and the “log(KD (M))” value is -5.64 log M.

B19: De novo trastuzumab HCDR2|3 variant IYSSDGYT / ARSGGSSYYYYDY (Fab, V domains shown)
VH: EVQLVESGGGLVQPGGSLRLSCAASGFNIKDTYIHWVRQAPGKGLEWVARIYSSDGYTRYADSVKGRFTISADTSKNTAYLQMNSLRAEDTAVYYCARSGGSSYYYYDYWGQGTLVTVSS
VL: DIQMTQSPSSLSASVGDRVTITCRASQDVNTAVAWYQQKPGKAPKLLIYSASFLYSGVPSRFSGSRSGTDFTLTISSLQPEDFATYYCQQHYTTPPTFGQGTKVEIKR
Consider B19, for which the Kd is 810 nM and the “log(KD (M))” value was -6.09 log M.

B20: Multi-step trastuzumab HCDR3 variant ARDGGRGRYAMDY (SEQ ID NO: 541) (Fab, V domains shown)
VH: EVQLVESGGGLVQPGGSLRLSCAASGFNIKDTYIHWVRQAPGKGLEWVARIYPTNGYTRYADSVKGRFTISADTSKNTAYLQMNSLRAEDTAVYYCARDGGRGRYAMDYWGQGTLVTVSS
VL: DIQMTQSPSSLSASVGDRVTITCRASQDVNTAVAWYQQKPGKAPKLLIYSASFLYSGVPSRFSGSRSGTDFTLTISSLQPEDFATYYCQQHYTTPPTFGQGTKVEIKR
B20: the affinity, expressed as Kd, was 402 nM and the “log(KD (M))” value was -6.4 log M.

B21: Multi-step trastuzumab HCDR3 variant ARSGGSSYYYYDY (SEQ ID NO: 508) (Fab, V domains shown)
VH: EVQLVESGGGLVQPGGSLRLSCAASGFNIKDTYIHWVRQAPGKGLEWVARIYPTNGYTRYADSVKGRFTISADTSKNTAYLQMNSLRAEDTAVYYCARSGGSSYYYYDYWGQGTLVTVSS
VL: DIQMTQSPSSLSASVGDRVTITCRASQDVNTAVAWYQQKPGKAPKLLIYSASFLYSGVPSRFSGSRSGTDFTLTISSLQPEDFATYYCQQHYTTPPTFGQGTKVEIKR
Consider B21, for which the Kd was 1070 nM and the “log(KD (M))” value is -5.97 log M.

B22: Multi-step trastuzumab HCDR3 variant ARDGGGGFYAYDY (SEQ ID NO: 534) (Fab, V domains shown)
VH: EVQLVESGGGLVQPGGSLRLSCAASGFNIKDTYIHWVRQAPGKGLEWVARIYPTNGYTRYADSVKGRFTISADTSKNTAYLQMNSLRAEDTAVYYCARDGGGGFYAYDYWGQGTLVTVSS
VL: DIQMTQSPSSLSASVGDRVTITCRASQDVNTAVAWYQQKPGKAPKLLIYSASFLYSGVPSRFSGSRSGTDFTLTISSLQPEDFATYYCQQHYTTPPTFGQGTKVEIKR
On to B22, for which the Kd came to 124 nM and the “log(KD (M))” value is -6.91 log M.

B23: Multi-step trastuzumab HCDR3 variant ARDGGGGVYAFTY (SEQ ID NO: 525) (Fab, V domains shown)
VH: EVQLVESGGGLVQPGGSLRLSCAASGFNIKDTYIHWVRQAPGKGLEWVARIYPTNGYTRYADSVKGRFTISADTSKNTAYLQMNSLRAEDTAVYYCARDGGGGVYAFTYWGQGTLVTVSS
VL: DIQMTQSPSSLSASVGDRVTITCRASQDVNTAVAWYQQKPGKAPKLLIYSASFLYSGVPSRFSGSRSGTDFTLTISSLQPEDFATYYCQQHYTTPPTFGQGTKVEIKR
B23: the affinity, expressed as Kd, was 364 nM and the “log(KD (M))” value was -6.44 log M.

B24: Multi-step trastuzumab HCDR3 variant ARSGGSSFYGMDY (SEQ ID NO: 519) (Fab, V domains shown)
VH: EVQLVESGGGLVQPGGSLRLSCAASGFNIKDTYIHWVRQAPGKGLEWVARIYPTNGYTRYADSVKGRFTISADTSKNTAYLQMNSLRAEDTAVYYCARSGGSSFYGMDYWGQGTLVTVSS
VL: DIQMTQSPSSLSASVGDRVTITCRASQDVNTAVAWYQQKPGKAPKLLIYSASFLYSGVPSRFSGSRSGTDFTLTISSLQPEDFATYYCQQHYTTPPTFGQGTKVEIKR
As to B24, binding was characterised by a dissociation constant (Kd) of 680 nM and the “log(KD (M))” value was -6.17 log M.

B25: Multi-step trastuzumab HCDR3 variant ARDRGVSGYYLYY (SEQ ID NO: 516) (Fab, V domains shown)
VH: EVQLVESGGGLVQPGGSLRLSCAASGFNIKDTYIHWVRQAPGKGLEWVARIYPTNGYTRYADSVKGRFTISADTSKNTAYLQMNSLRAEDTAVYYCARDRGVSGYYLYYWGQGTLVTVSS
VL: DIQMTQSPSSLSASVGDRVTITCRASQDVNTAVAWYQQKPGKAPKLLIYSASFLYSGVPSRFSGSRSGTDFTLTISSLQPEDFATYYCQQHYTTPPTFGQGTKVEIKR
For B25, the Kd came out at 567 nM and the “log(KD (M))” value was -6.25 log M.

B26: Multi-step trastuzumab HCDR3 variant ARTGGSSYYAYDY (SEQ ID NO: 520) (Fab, V domains shown)
VH: EVQLVESGGGLVQPGGSLRLSCAASGFNIKDTYIHWVRQAPGKGLEWVARIYPTNGYTRYADSVKGRFTISADTSKNTAYLQMNSLRAEDTAVYYCARTGGSSYYAYDYWGQGTLVTVSS
VL: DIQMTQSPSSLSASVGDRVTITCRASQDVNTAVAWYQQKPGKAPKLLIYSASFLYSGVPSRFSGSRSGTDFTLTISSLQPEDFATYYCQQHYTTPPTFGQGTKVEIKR
On to B26, for which the Kd came to 901 nM and the “log(KD (M))” value was -6.05 log M.

B27: Multi-step trastuzumab HCDR3 variant ARSGGYYHYGFVY (SEQ ID NO: 544) (Fab, V domains shown)
VH: EVQLVESGGGLVQPGGSLRLSCAASGFNIKDTYIHWVRQAPGKGLEWVARIYPTNGYTRYADSVKGRFTISADTSKNTAYLQMNSLRAEDTAVYYCARSGGYYHYGFVYWGQGTLVTVSS
VL: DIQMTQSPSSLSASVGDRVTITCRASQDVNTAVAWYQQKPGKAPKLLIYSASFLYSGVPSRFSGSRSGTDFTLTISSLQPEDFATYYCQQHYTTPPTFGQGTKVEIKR
With B27, binding was put at a Kd of 228 nM and the “log(KD (M))” value is -6.64 log M.

B28: Multi-step trastuzumab HCDR3 variant ARSGGGSYYYYDY (SEQ ID NO: 546) (Fab, V domains shown)
VH: EVQLVESGGGLVQPGGSLRLSCAASGFNIKDTYIHWVRQAPGKGLEWVARIYPTNGYTRYADSVKGRFTISADTSKNTAYLQMNSLRAEDTAVYYCARSGGGSYYYYDYWGQGTLVTVSS
VL: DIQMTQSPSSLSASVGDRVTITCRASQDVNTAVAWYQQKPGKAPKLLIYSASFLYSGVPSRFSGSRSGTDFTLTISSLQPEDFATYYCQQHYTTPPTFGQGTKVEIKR
Regarding B28, the Kd came out at 308 nM and the “log(KD (M))” value was -6.51 log M.

B29: De novo trastuzumab HCDR2|3 variant IYPSSGYT / ASSGGRYYYYYDY (Fab, V domains shown)
VH: EVQLVESGGGLVQPGGSLRLSCAASGFNIKDTYIHWVRQAPGKGLEWVARIYPSSGYTRYADSVKGRFTISADTSKNTAYLQMNSLRAEDTAVYYCASSGGRYYYYYDYWGQGTLVTVSS
VL: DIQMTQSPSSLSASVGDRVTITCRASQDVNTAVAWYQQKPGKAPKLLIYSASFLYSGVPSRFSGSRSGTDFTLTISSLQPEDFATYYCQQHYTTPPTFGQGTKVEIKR
As for B29, the Kd was 591 nM and the “log(KD (M))” value is -6.23 log M.
